Here are results for three molecules from patent US20090318342A1, “Compounds” (IMPERIAL INNOVATIONS LIMITED, priority 2005, published 2009).

The subject of one experiment is THP-1 cells. The experiment is described as follows: Inhibition of TNF-α shedding from THP-1 cells (ELISA). The experiment is classed as cell-based, human. The conditions noted are these: 100 ng/ml PMA, 6 h, 50 to 500 nM. As for the experimental part: FIG. 3. Effects of mutations in N-TIMP-3 on inhibition of cellular shedding of TNF-α. THP-1 cells (2.5×10^6/ml) growing in serum-free RPMI-1640 medium were stimulated with 100 ng/ml PMA for 20 min before adding various concentrations of N-TIMP-3 (wild-type and mutants). Cells were allowed to grow for another 6 hr and conditioned media were collected for the ELISA assays.
Inhibition of TNF-α shedding from THP-1 cells—All TIMP solutions were dialyzed against 20 mM Tris-HCl (pH 7.0), 150 mM NaCl and 20% glycerol before use. Human monocyte THP-1 cells cultured in RPMI-1640 medium supplemented with 5% fetal calf serum were harvested, extensively washed and reseeded into serum-free medium at 2.5×10^6 cells/ml. […] The amount of soluble TNF-α released into the medium was measured using sandwich enzyme-linked immunosorbent assay, as described by Engelberts et al. (30) with modifications. The released TNF-α was absorbed to microtiter plates coated with mouse monoclonal anti-human TNF-α antibody BD551220 (1:200 dilution), and the bound TNF-α was detected using biotinylated mouse monoclonal anti-human TNF-α: antibody BD554511 (1:500 dilution) and streptavidin conjugated with horse radish peroxidase, and 3,3′,5,5′-tetramethylbenzidine as peroxidase substrate (KPL, Guildford, UK). The plates were read at 450 nm with an ELX808 plate reader (BIO-TEK Instruments Inc). […]
On the technique in general: An ELISA detects its analyte on a solid surface through an enzyme-linked reagent.

Experiment [1] relates to monocyte-derived macrophages (MDM). Nature of the experiment: TNFα release by monocyte-derived macrophages (ELISA). Type of experiment: cell-based, human. The conditions noted are these: for EC50: 10 ng/ml LPS, read-out: EC50 for inhibition of LPS stimulated TNFα release by MDM; for Effect on basal TNFα release by MDM: no LPS. As for the experimental part:
FIG. 9. The effect of TIMP-3 mutants on TNFα release by monocyte-derived-macrophages (MDM). […] Data is normalised to % LPS stimulation.
To address the efficacy of TMP-3 mutants on MDM, MDM from a healthy subject were cultured in the laboratory and stimulated with LPS. The effect of TIMP-3 mutants on MMP-9 activity and TNFα was measured.
This method was adapted from Dransfield et al., [7] and performed under sterile conditions. Blood was collected into EDTA (2% W/v). Dextran solution (6% w/v) was added to the whole blood in volumes of 10 ml per 20 ml blood and the final volume adjusted to 50 ml in Dulbecco's PBS. The samples were allowed to sediment at room temperature for 45 min. After sedimentation, the upper leukocyte rich layer was centrifuged at 400×g for 10 min, 4° C. and the supernatant discarded. The pellets containing the cells were resuspended in Dulbecco's PBS and centrifuged for a second time as before.
The gradient consisted of three separate concentrations of Percoll™. A ‘100% v/v’ Percoll™ solution was prepared from 90% v/v Percoll™ containing 10% v/v 10×PBS. The gradient was then prepared as follows: 4 ml 81% v/v Percoll was added to a 15 ml Falcon tube. This was overlaid by 4 ml 70% v/v Percoll. The cell pellet was resuspended in 3 ml of 55% v/v Percoll™ and then overlaid onto the pre-prepared gradient. The cells were centrifuged at 750×g for 20 min at 4° C. The peripheral blood mononuclear cells (PBMCs) were harvested from the 55%/70% interface (top layer) and the polymorphonuclear (PMN) cells remained at the 70%/81% interface (bottom layer). PBMCs were washed twice by centrifugation in sterile PBS.
PBMCs were washed in serum-containing separation buffer (sterile PBS, 0.5% w/v bovine serum albumin (BSA), 2 mM EDTA. The cells were diluted 1:100 in Kimura stain and counted using a haemocytometer. The cell pellet was resuspended with the following ratio of reagents from the monocyte isolation kit. 60 μl separation buffer, 20 μl Fc receptor (FcR) blocking reagent and 20 μl Hapten Conjugated Antibody cocktail were added to 10^7 cells and incubated at 6-12° C. for 5 min. The cells were washed twice (5 min, 4° C., 250×g) in separation buffer in a volume 10-20 times higher than the labelling volume. The cell pellet was resuspended in: 60 μl separation buffer, 20 μl FcR blocking reagent, 20 μl MACS anti-hapten microbeads and 5 μl CD15 microbeads (to remove any contaminating neutrophils) per 10^7 cells and incubated at 6-12° C. for 15 min. The cells were washed (5 min, 4° C., 250×g) and resuspended in 500 μl separation buffer. The magnetic column was prepared by washing with 3 ml separation buffer. […]
TNFα was measured using a commercially available ELISA kit and MMP-9 was measured using a Fluorokine kit.

B1: N-TIMP-3: N-terminal inhibitory domain of TIMP-3 (residues 1 to 121), C-terminally His-tagged, wild-type (protein)
chain: CTCSPSHPQDAFCNSDIVIRAKVVGKKLVKEGPFGTLVYTIKQMKMYRGFTKMPHVQYIHTEASESLCGLKLEVNKYQYLLTGRVYDGKMYTGLCNFVERWDQLTLSQRKGLNYRYHLGCN
In general, EC50 refers to the concentration needed to bring the measured effect to its halfway point. Take B1: the “Inhibition of PMA-stimulated release of TNF-α” value in the experiment with THP-1 cells is “effectively inhibited”. For the same molecule, in experiment [1], the EC50 was roughly 180 nM and the “Effect on basal TNFα release by MDM” value is on record as “little effect”.

B2: (-2A)N-TIMP-3: N-TIMP-3 mutant with two alanine residues on the N-terminal side of Cysteine1 of the TIMP-3 sequence (protein)
chain: AACTCSPSHPQDAFCNSDIVIRAKVVGKKLVKEGPFGTLVYTIKQMKMYRGFTKMPHVQYIHTEASESLCGLKLEVNKYQYLLTGRVYDGKMYTGLCNFVERWDQLTLSQRKGLNYRYHLGCN
On to B2, for which, in experiment [1], the 50% effective concentration (EC50) is roughly 180 nM and the “Effect on basal TNFα release by MDM” value is listed as “little effect”.

B3: -1A: N-TIMP-3 mutant with the addition of an N-terminal alanine extension (-1A) (protein)
chain: ACTCSPSHPQDAFCNSDIVIRAKVVGKKLVKEGPFGTLVYTIKQMKMYRGFTKMPHVQYIHTEASESLCGLKLEVNKYQYLLTGRVYDGKMYTGLCNFVERWDQLTLSQRKGLNYRYHLGCN
In the case of B3, the “Inhibition of PMA-stimulated release of TNF-α” value in the experiment with THP-1 cells is “only slightly reduced inhibitory activity”.
